In patent publication US6676941B2 (Board of Regents, The University of Texas System, priority 1999, dated 2004):

Test system: Bend3 mouse endothelial cells; ABAE; HUVEC
Test: Direct binding of biotinylated 6-His endostatin to endothelial cells
Type: cell-based, bovine, human
Conditions: streptavidin-peroxidase detection
Text: Binding was detected using streptavidin-peroxidase in conjunction with O-phenylenediamine (OPD) and the absorbance read at 490 nm.

B1: endostatin (protein, UniProt P39060 1572-1754, looked up)
Endostatin: HSHRDFQPVLHLVALNSPLSGGMRGIRGADFQCFQQARAVGLAGTFRAFLSSRLQDLYSIVRRADRAAVPIVNLKDELLFPSWEALFSGSEGPLKPGARIFSFDGKDVLRHPTWPQKSVWHGSDPNGRRLTESYCETWRTEAPSATGQASSLLGGRLLGQSAASCHHAYIVLCIENSFMTASK
modifications: Endostatin
In the case of B1, the “Binding to endothelial cells in vitro” value is reported as “bound in a saturable fashion”.
